Measurements: patent publication US9186389B2, “Nanoparticles containing pH-responsive peptide” (Taiho Pharmaceutical Co., Ltd., priority 2011, dated 2015)
* marks the point of attachment. Stearoyl = CCCCCCCCCCCCCCCCCC(=O)*

Test: CD spectra under different pH conditions with predicted secondary structure
Assay type: physicochemical
Conditions: peptide concentration 20 μM, PBS (−), pH 7.4, 6.5, 6.0, 5.5
Description: The peptide obtained in Production Example 1 alone and liposome 1 obtained as in Example 1 (each having a peptide concentration of 20 μM) were suspended in PBS (−) having different pH, and CD (circular dichroism) spectra were recorded on a J-720WI spectropolarimeter (produced by JASCO Corporation). Then, analysis software (see JWSSE-480; Molecular Membrane Biology, July, August 2007; 24 (4): 282-293) was used to predict the composition of the secondary structure in the spectra.
In FIG. 9 below, the “α-helix” represents an a helix structure; the “coil” represents a random coil structure (not forming a clear secondary structure); and “turn” represents a bending structure.

C17H35—C(O)-GGGGHGAHEHAGHEHAAGEHHAHE-NH2 (Stearoyl-GGGGHGAHEHAGHEHAAGEHHAHE-NH2; SMILES CCCCCCCCCCCCCCCCCC(=O)NCC(=O)NCC(=O)NCC(=O)NCC(=O)N[C@@H](Cc1c[nH]cn1)C(=O)NCC(=O)N[C@@H](C)C(=O)N[C@@H](Cc1c[nH]cn1)C(=O)N[C@@H](CCC(=O)O)C(=O)N[C@@H](Cc1c[nH]cn1)C(=O)N[C@@H](C)C(=O)NCC(=O)N[C@@H](Cc1c[nH]cn1)C(=O)N[C@@H](CCC(=O)O)C(=O)N[C@@H](Cc1c[nH]cn1)C(=O)N[C@@H](C)C(=O)N[C@@H](C)C(=O)NCC(=O)N[C@@H](CCC(=O)O)C(=O)N[C@@H](Cc1c[nH]cn1)C(=O)N[C@@H](Cc1c[nH]cn1)C(=O)N[C@@H](C)C(=O)N[C@@H](Cc1c[nH]cn1)C(=O)N[C@@H](CCC(=O)O)C(N)=O) [Compound 1]
structural change with pH (CD spectrum): a structural change does not occur unless the pH is lowered to 6.0
